Results published in the supplement of paper PMC10126150.
± gives the standard deviation of the averaged measurements.

The sequences below were run on ATP (assay: switch fluorescence ratio, 500 uM ATP over buffer (Cy3 cluster intensity, sum of 5 cycles each) (fold (ratio)); higher = stronger signal-on switching upon ATP binding; sequences stand for … in TCGTCGGCAGCGTCAGATGTGTATAAGAGACAGTTTTTTTTTTTTTTTTTTTTTTTTT…TC). Details: aptamer strand: ATP DNA aptamer (quencher-CACCTGGGGGAGTATTGCGGAGGAAGG + anchor), 100 nM annealed; ATP concentration: 500 uM.
In short: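 Cy3-labelled switching-strand clusters on a modified Illumina MiSeq flow-cell were annealed to 100 nM quencher-labelled ATP aptamer and imaged first in selection buffer, then after 15 min with 500 uM ATP at 22 °C. NaOH stripping and re-annealing separated each of five buffer/ATP cycles, and clusters outside 100-1000 RFU were excluded. The fluorescence ratio sums target-cycle Cy3 intensity over buffer-cycle Cy3 intensity per cluster and averages it per switch-domain sequence.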
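Also: ATP exposure 15 min at 22 °C before imaging.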

| Sequence | switch fluorescence ratio |
| --- | --- |
| AGCCAGTTCG | 1 ± 0.012 |
| TTTAGCATTT | 0.997 ± 0.014 |
| TCTGGAGTTG | 1.01 ± 0.084 |
| AACGGGGGAG | 0.979 ± 0.021 |
| ACAGACTGAT | 1.1 ± 0.076 |
| AGCGTAGGGG | 0.94 ± 0.033 |
| CATGATGAGA | 0.969 ± 0.035 |
| CGTTAAGTTA | 0.974 ± 0.012 |
| ATGGTAGG | 0.9749 ± 0.0017 |
| CCTAGCAAGT | 3.19 ± 0.92 |
| GCGTATGTAT | 1.002 ± 0.0068 |
| GCTTTTAGCG | 0.989 ± 0.055 |
| GGACGTAGTA | 1.006 ± 0.0071 |
| AATGGAAGGC | 1.09 ± 0.07 |
| TTGTAGGGAT | 1.43 ± 0.77 |
| TGTAAACCGC | 1.2 ± 0.16 |
| TTGTGTGTGG | 0.976 ± 0.021 |
| AGTACAGGCG | 1.024 ± 0.0097 |
| GCGTTGGGGT | 1.01 ± 0.019 |
| CAAATTGCTT | 1.01 ± 0.038 |
| GGGAATATTT | 0.995 ± 0.0097 |
| TCTAAAAAAG | 0.991 ± 0.028 |
| TTTAAGATTA | 0.9843 ± 0.0063 |
| TAGGGAACGC | 1.02 ± 0.011 |
| TATGAGTGGG | 0.976 ± 0.018 |

| Sequence | switch fluorescence ratio |
| --- | --- |
| TGGGATTATC | 1.02 ± 0.027 |
| ACCAATATCT | 1.01 ± 0.068 |
| GTGGTAAGCT | 1.02 ± 0.049 |
| CCATACGTTT | 1.02 ± 0.046 |
| TCAGGGAGGT | 0.989 ± 0.051 |
| ACGGTAGTTG | 0.9851 ± 0.009 |
| TCCCCAGGGG | 1.1 ± 0.11 |
| AGTTTTATCA | 0.97 ± 0.015 |
| CCTGATTGAA | 0.991 ± 0.0088 |
| TGGTGAAAGC | 0.991 ± 0.022 |
| GGGTTTTGGC | 1 ± 0.066 |
| CATGCTACGG | 1.01 ± 0.016 |
| CGGGGACGGA | 1.02 ± 0.029 |
| ATGACGGAGC | 1.94 ± 0.31 |
| CTTCGTACGA | 1.03 ± 0.043 |
| TGGCAGGGAT | 1.02 ± 0.067 |
| TATGGACTAG | 1.01 ± 0.025 |
| TTTTTAGGG | 0.983 ± 0.034 |
| GAGTTTAAGA | 0.979 ± 0.024 |
| GGGTTCTAGG | 0.999 ± 0.043 |
| GCATTTAATG | 1 ± 0.05 |
| GGGTTTCGAC | 1.02 ± 0.013 |
| TACTTCATCA | 1.03 ± 0.02 |
| AGGGACATAT | 1.018 ± 0.006 |
| TGTGGGGATA | 0.9904 ± 0.0011 |

| Sequence | switch fluorescence ratio |
| --- | --- |
| GGGAGTTCTA | 0.991 ± 0.023 |
| AACTTAATG | 0.9926 ± 0.0025 |
| CTCTTACGTT | 0.98 ± 0.023 |
| AGTTTAACGC | 0.9911 ± 0.0059 |
| AACACATGCG | 0.9936 ± 0.0015 |
| TTGATTTATT | 0.994 ± 0.017 |
| GGTATTAGCT | 1.01 ± 0.013 |
| ACCGATTTTT | 1.047 ± 0.01 |
| CCTATAGAGT | 0.964 ± 0.02 |
| CAAATAAGTT | 1.02 ± 0.029 |
| TGAATAGTGT | 0.996 ± 0.044 |
| GCGAATTAAT | 0.979 ± 0.033 |
| GCAAAGGGCG | 1.03 ± 0.034 |
| ACCAGCAGCC | 1.21 ± 0.025 |
| TAGGGAGAGG | 0.9871 ± 0.0049 |
| TTTTAATGAT | 0.983 ± 0.024 |
| CTGGTAATGG | 1.04 ± 0.033 |
| CCGAGAGGGT | 1.06 ± 0.069 |
| TTCCTATTTT | 1 ± 0.029 |
| GTCTAAGAGT | 0.9786 ± 0.0048 |
| GTTGTATTGT | 0.999 ± 0.019 |
| GGTTATGTTG | 0.977 ± 0.047 |
| GTAAGAGCGT | 0.996 ± 0.041 |
| CGATTGTTGA | 1.01 ± 0.037 |
| CAAGGAATGG | 0.995 ± 0.035 |

| Sequence | switch fluorescence ratio |
| --- | --- |
| TGAGGGCTTT | 1.013 ± 0.0023 |
| TGACCGGCTT | 1.05 ± 0.013 |
| CATAAGGTCG | 1.03 ± 0.083 |
| GGATACGTTT | 0.994 ± 0.012 |
| TTGGTTAATG | 1.01 ± 0.019 |
| GGGTTTCGCG | 1.01 ± 0.023 |
| CGGGGGGGAC | 1.11 ± 0.16 |
| AAAGAGGGAT | 0.986 ± 0.053 |
| GTTTTTTTGA | 1.0032 ± 0.00018 |
| GGGGTAGAGG | 0.977 ± 0.015 |
| TTTGCGCGTT | 0.985 ± 0.018 |
| TGTGGCACTT | 0.998 ± 0.022 |
| AAATTAAATT | 0.996 ± 0.039 |
| CCACTTAGGG | 1.01 ± 0.021 |
| TTCCTGTGAT | 1.22 ± 0.27 |
| CGGGGGCAGC | 1.01 ± 0.06 |
| GCCCTGATGG | 1 ± 0.035 |
| ATTAGAATGT | 1.02 ± 0.023 |
| TGAGGCAGCT | 1.06 ± 0.11 |
| GTATTTTTGA | 1.003 ± 0.0091 |
| ACATCGGGGG | 1.013 ± 0.0089 |
| CGGGGGTCTG | 1.01 ± 0.028 |
| TGATTGCAGC | 0.994 ± 0.028 |
| GTAGTTAATG | 0.984 ± 0.038 |
| GGGCCTGCTT | 0.97 ± 0.052 |
